Data reported in paper PMC3668751, “Assembly of the Yeast Exoribonuclease Rrp6 with Its Associated Cofactor Rrp47 Occurs in the Nucleus and Is Critical for the Controlled Expression of Rrp47*” (The Journal of Biological Chemistry, 2013).

B1: GST-Rrp6NT (domain or fragment, S. cerevisiae, UniProt Q12149 1-211, looked up)
chain: MTSENPDVLLSRVINVVRAASSLASQDVDFYKNLDRGFSKDLKSKADKLADMANEIILSIDEHHESFELKEEDISDLWNNFGNIMDNLLEMSDHSLDKLNCAINSKSRGSDLQYLGEFSGKNFSPTKRVEKPQLKFKSPIDNSESHPFIPLLKEKPNALKPLSESLRLVDDDENNPSHYPHPYEYEIDHQEYSPEILQIREEIPSKSWDDS
notes: Rrp6, S. cerevisiae, N-terminal region (Rrp6NT, holds the PMC2NT domain); The preparation held some proteolytic fragments of the GST fusion; also called Rrp6NT domain; N-terminal region of Rrp6; source: E. coli, co-lysed with cells expressing His6-Rrp47; complex purified (Ni-NTA, glutathione-Sepharose, Superdex 200)
B2: C-terminally truncated Rrp47NT protein (domain or fragment, S. cerevisiae, UniProt P38801 1-120, looked up)
chain: MEDIEKIKPYVRSFSKALDELKPEIEKLTSKSLDEQLLLLSDERAKLELINRYAYVLSSLMFANMKVLGVKDMSPILGELKRVKSYMDKAKQYDNRITKSNEKSQAEQEKAKNIISNVLD
notes: Rrp47 (Lrp1), S. cerevisiae, N-terminal domain; the discussion gives it as the first 120 amino acid residues; it probably carries a His tag like the full-length protein; also called N-terminal domain of Rrp47; Rrp47NT polypeptide
B3: Recombinant full-length His6-Rrp47 (natural protein, S. cerevisiae, UniProt P38801 1-184, looked up)
chain: MEDIEKIKPYVRSFSKALDELKPEIEKLTSKSLDEQLLLLSDERAKLELINRYAYVLSSLMFANMKVLGVKDMSPILGELKRVKSYMDKAKQYDNRITKSNEKSQAEQEKAKNIISNVLDGNKNQFEPSISRSNFQGKHTKFENDELAESTTTKIIDSTDHIRKASSKKSKRLDKVGKKKGGKK
notes: Rrp47 (also known as Lrp1), S. cerevisiae, full-length recombinant protein; On its own a non-globular homodimer (theoretical homodimer mass 50,920 Da with the tag); One copy stands in the heterodimer with Rrp6NT; also called His-Rrp47; Lrp1; source: for the complex, co-lysed with cells expressing Rrp6NT

Assays:
[1] = biological target: B3; test: pull-down + SEC; E. coli cells expressing His6-Rrp47 or GST-Rrp6NT lysed together; Ni-NTA, then glutathione-Sepharose, then Superdex 200; 50 mM HEPES pH 7.6, 300 mM NaCl; ratio from densitometry of the Coomassie-stained SDS-PAGE of the peak fraction
[2] = biological target: the molecule itself; test: cross-linking; 0.01% glutaraldehyde on ice, ~40 µM protein, 50 mM HEPES pH 7.6, 300 mM NaCl; SDS-PAGE and Western blot
[3] = biological target: the molecule itself; test: AUC; sedimentation velocity, 38,000 rpm, 20 °C, 50 mM Hepes pH 7.6, 500 mM NaCl, 0.25 and 1 mg/ml, absorbance at 280 nm, SEDFIT

## B1
[1]
  stoichiometry N: 0.8 Rrp6NT per Rrp47

## B2
[2]
  stoichiometry N: 2

## B3
[3]
  stoichiometry N: 2
